Reference: US20140087995A1 (published 2014)
Numbered stars: 1 amine (or outer) side, 2 acyl side, 3 side chain; on linkers, the order of the positions; unused ones are H or OH. Bridge positions count the residues as written; N and C are the ends. * marks the point of attachment. C20 diacid = O=C(O)CCCCCCCCCCCCCCCCCCC(=O)*; γGlu = O=C(O)[C@H](CCC(=O)[*:2])N[*:1]

Legend:
[1] = molecular target: T1, human amylin receptor (amylin 3(a) receptor: human calcitonin receptor with RAMP-3) (human, UniProt P30988 25-474; O60896 24-148); assay: cell-based or functional assay
T1 sequence (looked up) 1: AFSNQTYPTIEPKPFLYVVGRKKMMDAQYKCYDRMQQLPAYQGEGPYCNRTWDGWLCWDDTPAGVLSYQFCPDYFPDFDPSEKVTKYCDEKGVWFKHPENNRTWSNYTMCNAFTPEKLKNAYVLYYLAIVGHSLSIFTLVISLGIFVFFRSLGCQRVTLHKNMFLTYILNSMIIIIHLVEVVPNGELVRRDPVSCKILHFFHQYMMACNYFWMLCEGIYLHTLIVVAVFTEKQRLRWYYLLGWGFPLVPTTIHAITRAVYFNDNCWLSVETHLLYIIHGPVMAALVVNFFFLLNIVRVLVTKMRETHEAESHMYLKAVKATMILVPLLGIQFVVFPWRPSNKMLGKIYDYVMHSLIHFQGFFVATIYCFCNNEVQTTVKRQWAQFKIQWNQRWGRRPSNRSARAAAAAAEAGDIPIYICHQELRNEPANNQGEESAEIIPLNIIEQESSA
T1 sequence (looked up) 2: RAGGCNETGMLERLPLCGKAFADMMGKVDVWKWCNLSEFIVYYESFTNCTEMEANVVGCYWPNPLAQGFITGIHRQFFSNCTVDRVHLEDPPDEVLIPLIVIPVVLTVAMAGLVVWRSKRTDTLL

[2] = molecular target: T2, human calcitonin receptor (human, UniProt P30988 25-474); assay: cell-based or functional assay
T2 sequence (looked up): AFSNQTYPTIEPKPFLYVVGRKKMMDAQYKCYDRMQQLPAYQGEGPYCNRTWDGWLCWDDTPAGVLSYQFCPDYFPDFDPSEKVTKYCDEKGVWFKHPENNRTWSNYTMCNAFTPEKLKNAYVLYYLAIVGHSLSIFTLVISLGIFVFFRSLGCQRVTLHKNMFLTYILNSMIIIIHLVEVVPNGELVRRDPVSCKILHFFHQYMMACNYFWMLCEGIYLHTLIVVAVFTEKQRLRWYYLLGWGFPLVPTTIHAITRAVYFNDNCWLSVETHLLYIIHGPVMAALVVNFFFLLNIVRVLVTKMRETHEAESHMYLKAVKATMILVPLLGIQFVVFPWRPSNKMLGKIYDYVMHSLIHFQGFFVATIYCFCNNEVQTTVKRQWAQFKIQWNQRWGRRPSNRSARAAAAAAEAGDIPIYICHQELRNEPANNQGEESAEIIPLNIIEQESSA

B1: N^α1-[(4S)-4-carboxy-4-[[(4S)-4-carboxy-4-(19-carboxynonadecanoylamino)butanoyl]amino]butanoyl]-[Glu14,Arg17,Pro21,Pro27,Pro37]-h-amylin (peptide)
peptide: {C20 diacid-γGlu-γGlu}-KCNTATCATQRLAEFLRHSSPNFGAIPSSTNVGSNTP-NH2
modifications: disulfide 2-7
SMILES: CC[C@H](C)[C@H](NC(=O)[C@H](C)NC(=O)CNC(=O)[C@H](Cc1ccccc1)NC(=O)[C@H](CC(N)=O)NC(=O)[C@@H]1CCCN1C(=O)[C@H](CO)NC(=O)[C@H](CO)NC(=O)[C@H](Cc1c[nH]cn1)NC(=O)[C@H](CCCNC(=N)N)NC(=O)[C@H](CC(C)C)NC(=O)[C@H](Cc1ccccc1)NC(=O)[C@H](CCC(=O)O)NC(=O)[C@H](C)NC(=O)[C@H](CC(C)C)NC(=O)[C@H](CCCNC(=N)N)NC(=O)[C@H](CCC(N)=O)NC(=O)[C@@H](NC(=O)[C@H](C)NC(=O)[C@@H]1CSSC[C@H](NC(=O)[C@H](CCCCN)NC(=O)CC[C@H](NC(=O)CC[C@H](NC(=O)CCCCCCCCCCCCCCCCCCC(=O)O)C(=O)O)C(=O)O)C(=O)N[C@@H](CC(N)=O)C(=O)N[C@@H]([C@@H](C)O)C(=O)N[C@@H](C)C(=O)N[C@@H]([C@@H](C)O)C(=O)N1)[C@@H](C)O)C(=O)N1CCC[C@H]1C(=O)N[C@@H](CO)C(=O)N[C@@H](CO)C(=O)N[C@H](C(=O)N[C@@H](CC(N)=O)C(=O)N[C@H](C(=O)NCC(=O)N[C@@H](CO)C(=O)N[C@@H](CC(N)=O)C(=O)N[C@H](C(=O)N1CCC[C@H]1C(N)=O)[C@@H](C)O)C(C)C)[C@@H](C)O
notes: also called compound 14
[1]
  hAmylin-R funct. EC50: 0.146 nM
[2]
  Ratio hCT/hAmylin funct.: 1.6
  hCTR funct. EC50: 0.238 nM

B2: N^α1N^α1-[(4S)-4-carboxy-4-(19-carboxynonadecanoylamino)butanoyl]-[Glu14,Arg17,Pro21,Pro27,Glu35]-h-amylin (peptide)
peptide: {C20 diacid-γGlu}-KCNTATCATQRLAEFLRHSSPNFGAIPSSTNVGSETY-NH2
modifications: disulfide 2-7
SMILES: CC[C@H](C)[C@H](NC(=O)[C@H](C)NC(=O)CNC(=O)[C@H](Cc1ccccc1)NC(=O)[C@H](CC(N)=O)NC(=O)[C@@H]1CCCN1C(=O)[C@H](CO)NC(=O)[C@H](CO)NC(=O)[C@H](Cc1c[nH]cn1)NC(=O)[C@H](CCCNC(=N)N)NC(=O)[C@H](CC(C)C)NC(=O)[C@H](Cc1ccccc1)NC(=O)[C@H](CCC(=O)O)NC(=O)[C@H](C)NC(=O)[C@H](CC(C)C)NC(=O)[C@H](CCCNC(=N)N)NC(=O)[C@H](CCC(N)=O)NC(=O)[C@@H](NC(=O)[C@H](C)NC(=O)[C@@H]1CSSC[C@H](NC(=O)[C@H](CCCCN)NC(=O)CC[C@H](NC(=O)CCCCCCCCCCCCCCCCCCC(=O)O)C(=O)O)C(=O)N[C@@H](CC(N)=O)C(=O)N[C@@H]([C@@H](C)O)C(=O)N[C@@H](C)C(=O)N[C@@H]([C@@H](C)O)C(=O)N1)[C@@H](C)O)C(=O)N1CCC[C@H]1C(=O)N[C@@H](CO)C(=O)N[C@@H](CO)C(=O)N[C@H](C(=O)N[C@@H](CC(N)=O)C(=O)N[C@H](C(=O)NCC(=O)N[C@@H](CO)C(=O)N[C@@H](CCC(=O)O)C(=O)N[C@H](C(=O)N[C@@H](Cc1ccc(O)cc1)C(N)=O)[C@@H](C)O)C(C)C)[C@@H](C)O
notes: also called compound 22
[1]
  hAmylin-R funct. EC50: 0.27 nM
[2]
  Ratio hCT/hAmylin funct.: 3.8
  hCTR funct. EC50: 1.03 nM
